# T1: sN-TALER N4.2.2 (synthetic)
# T1 chain: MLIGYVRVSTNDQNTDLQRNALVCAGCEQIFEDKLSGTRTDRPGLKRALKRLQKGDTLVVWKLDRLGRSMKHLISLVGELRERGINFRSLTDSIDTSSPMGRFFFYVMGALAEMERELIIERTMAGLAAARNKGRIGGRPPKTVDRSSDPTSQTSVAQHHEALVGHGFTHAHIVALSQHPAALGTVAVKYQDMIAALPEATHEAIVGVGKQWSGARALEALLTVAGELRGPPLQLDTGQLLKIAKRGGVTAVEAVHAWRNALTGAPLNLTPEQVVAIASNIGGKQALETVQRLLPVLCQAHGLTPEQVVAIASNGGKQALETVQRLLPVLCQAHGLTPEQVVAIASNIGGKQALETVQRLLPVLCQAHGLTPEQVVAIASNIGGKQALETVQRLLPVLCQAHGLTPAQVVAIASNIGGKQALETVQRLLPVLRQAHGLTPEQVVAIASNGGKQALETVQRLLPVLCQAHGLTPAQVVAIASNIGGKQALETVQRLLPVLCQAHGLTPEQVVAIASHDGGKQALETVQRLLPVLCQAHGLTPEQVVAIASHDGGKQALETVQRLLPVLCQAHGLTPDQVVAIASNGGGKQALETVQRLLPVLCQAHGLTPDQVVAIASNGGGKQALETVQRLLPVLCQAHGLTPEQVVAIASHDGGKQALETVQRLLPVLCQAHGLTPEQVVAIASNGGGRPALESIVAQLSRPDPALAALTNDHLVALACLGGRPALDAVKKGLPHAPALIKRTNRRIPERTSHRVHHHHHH
# T2: sN-TALER IV-1 (GinH106Y-TALE13) (synthetic)
# T2 chain: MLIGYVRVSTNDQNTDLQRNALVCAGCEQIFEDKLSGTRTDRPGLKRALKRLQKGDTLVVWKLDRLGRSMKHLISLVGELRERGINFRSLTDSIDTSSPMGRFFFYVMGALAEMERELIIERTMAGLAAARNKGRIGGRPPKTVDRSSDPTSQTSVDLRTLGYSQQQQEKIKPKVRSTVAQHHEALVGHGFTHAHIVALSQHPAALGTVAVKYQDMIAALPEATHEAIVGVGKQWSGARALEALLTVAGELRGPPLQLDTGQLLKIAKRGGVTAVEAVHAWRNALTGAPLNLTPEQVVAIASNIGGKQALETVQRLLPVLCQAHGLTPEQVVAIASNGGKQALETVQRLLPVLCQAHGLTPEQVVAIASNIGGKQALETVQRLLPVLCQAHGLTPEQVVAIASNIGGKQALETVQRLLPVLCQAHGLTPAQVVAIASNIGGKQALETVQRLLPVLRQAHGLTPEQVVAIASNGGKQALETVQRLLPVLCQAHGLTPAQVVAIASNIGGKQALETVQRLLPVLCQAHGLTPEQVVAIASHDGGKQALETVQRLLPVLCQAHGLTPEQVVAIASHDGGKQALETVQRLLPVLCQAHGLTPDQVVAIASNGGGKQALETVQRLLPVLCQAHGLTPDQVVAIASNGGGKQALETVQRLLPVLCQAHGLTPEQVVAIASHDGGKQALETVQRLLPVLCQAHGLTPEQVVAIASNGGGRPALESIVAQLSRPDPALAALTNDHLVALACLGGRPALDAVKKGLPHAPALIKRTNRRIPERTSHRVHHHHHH
# Experiments:
# sN-TALER N4.2.2 = target: T1, sN-TALER N4.2.2; assay: cell_activity; E. coli
# Description: (§1) The co-transformed bacteria were plated on media with chloramphenicol, kanamycin, and X-gal then incubated at 37° C. for 18 to 36 hours. Control samples consisted of transformations using the reporter construct alone. Control transformants were similarly plated. The bacterial transformation protocol was either heat shock or electroporation per standard molecular biology techniques.
# For each of these N-TALER chimera expression constructs, from one to three independent clones were selected for plasmid purification. These N-TALER chimera expression constructs were co-transformed with five of the N-TALER reporter constructs, as indicated in Table 15. […] In contrast to the result for pN-TALER N4.2.2, the chimera sN-TALER N4.2.2, with the same truncation point but a specific recombinase catalytic domain, reporters with 20, 24, or 40 bp of TALER central sequence length were efficiently recombined (score of 1) while reporters with 30 or 50 bp of TALER central sequence length were not recombined (score of 5). For the chimera sN-TALER N4.2, reporters with 20, 24, or 40 bp of TALER central sequence length were efficiently recombined (score of 1); the reporter with 30 bp of TALER central sequence length was poorly recombined (score of 3); and the reporter with 50 bp of TALER central sequence length was not recombined (score of 5). For the chimera pN-TALER N4.2, the recombination efficiency on the reporters tested varied from intermediate (scores of 3 and 4) to none (score of 5). […] In contrast to the result for sN-TALER N3.2, the chimera pN-TALER N3.2, with the same truncation point but a permissive recombinase catalytic domain, recombination efficiency on the reporters tested varied from efficient (scores of 1.5, 2, and 3) to none (score of 5). For both chimeras sN-TALER V.2 and pN-TALER V.2, there was efficient recombination (scores of 1, 1.5, and 2) of the 5 N-TALER reporter constructs tested.
# [1] = target: T2, sN-TALER IV-1 (GinH106Y-TALE13); assay: cell_activity; E. coli; sequenced; settings: tags: 6-His; chain copies: 2 per site, tetramer in synapsis (stated)
# Description: as §1, with “To test for recombination, E. coli DH5alpha cells were co-transformed with different combinations of TALER expression construct and TALER reporter construct pairs (Tables 6 and 7). The N-TALER expression and reporter constructs were in an approximate 1:1 mass ratio during the transformation. The co-transformed” for “The co-transformed”
# PCR was used to confirm that the predicted recombination had occurred in colonies which were white or sectored. PCR primers were designed so that a PCR product of approximately 877 bp (depending on the length of the spacers) would be produced from the non-recombined reporter constructs, and a PCR product of approximately 470 bp would be produced from reporter constructs that had undergone N-TALER-mediated recombination. Standard colony PCR was performed on white, blue, and sectored colonies from several plates representing different pairs of N-TALER expression construct and reporter construct co-transformation combinations.
# To confirm that the recombination occurred as predicted, several of the PCR products were sequenced. Sequencing results for PCR products generated from white colonies from the sN-TALER IV-1 and Gin18TALE+1; sN-TALER IV-1 and Gin20TALE+0; or sN-TALER IV-1 and Gin20TALE+10 reporter constructs are shown in FIG. 7. No mismatches were detected relative to the predicted recombinase core sequence in any of the PCR products sequenced thereby confirming a base-perfect recombination with N-TALERs (the few single-nucleotide mismatches detected in the sN-TALER IV-1 and Gin20TALE+0 combination were rechecked and consequently dismissed as sequencing error).
Binder,activity (sN-TALER N4.2.2) [score],activity [1] [score]
Gin18TALE+1 (dsDNA) DNA 1: AGAAGGTATTTATATCCAAAACCATGGTTTACAATATAAATACCTTCT DNA 2: AGAAGGTATTTATATTGTAAACCATGGTTTTGGATATAAATACCTTCT,1,1
Gin20TALE+0 (dsDNA) DNA 1: AGAAGGTATTTATATCCAAAACCATGGTTTACAGTATAAATACCTTCT DNA 2: AGAAGGTATTTATACTGTAAACCATGGTTTTGGATATAAATACCTTCT,,1
